From PMC11785096

Molecular target: another dynein heavy chain (unidentified second DHC of dynein-X) (Lytechinus variegatus (endogenous in sperm))
Assay: cryo-EM structure

With “DNAHX (dynein heavy chain, XP_041462850) (natural protein)” the percent of DNAHX particles in a two-headed dynein complex (open conformation) was 27% and the percent of DNAHX particles in phi particle dynein was 13%.
